Test results published in publication PMC3284002 (The Journal of Cell Biology, 2012).

T1: KNL-1^1–505–6xHis, wild type (C. elegans, UniProt P34278 1-505)
T1 sequence: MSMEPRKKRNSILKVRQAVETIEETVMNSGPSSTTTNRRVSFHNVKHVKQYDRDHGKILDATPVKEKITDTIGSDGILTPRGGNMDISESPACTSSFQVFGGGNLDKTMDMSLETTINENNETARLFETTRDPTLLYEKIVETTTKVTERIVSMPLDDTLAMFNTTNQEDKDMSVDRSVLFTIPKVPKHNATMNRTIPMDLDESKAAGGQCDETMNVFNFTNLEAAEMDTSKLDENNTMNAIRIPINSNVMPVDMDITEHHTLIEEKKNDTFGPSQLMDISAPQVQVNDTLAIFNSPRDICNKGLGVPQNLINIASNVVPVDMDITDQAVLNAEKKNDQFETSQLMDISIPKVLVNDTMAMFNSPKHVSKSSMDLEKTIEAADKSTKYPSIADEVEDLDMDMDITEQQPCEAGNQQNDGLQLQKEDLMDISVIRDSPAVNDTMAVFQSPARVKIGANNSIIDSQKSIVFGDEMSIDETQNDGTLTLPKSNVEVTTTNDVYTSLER

B1: GST–GSP-2 (enzyme)
chain: MDVEKLNLDNIISRLLEVRGSKPGKNVQLTESEIKGLCQKSREIFLSQPILLELEAPLKICGDVHGQYYDLLRLFEYGGFPPESNYLFLGDYVDRGKQSLETICLLLAYKIKYPENFFLLRGNHECASINRIYGFYDECKRRYNIKLWKTFTDCFNCLPVAAIIDEKIFCCHGGLSPDLQSMEQIRRIMRPTDVPDQGLLCDLLWSDPDKDVTGWGENDRGVSFTFGPEVVAKFLHKHDLDLICRAHQVVEDGYEFFAKRQLVTLFSAPNYCGEFDNAGSMMTVDETLMCSFQILKPADKKKYPYGAGGVGSNRPVTPPRNAPAAQPKKGAKK
B2: KNL-1^1–505–6xHis Δ9 (domain or fragment)
chain: NSILKVRQAVETIEETVMNSGPSSTTTNRRVSFHNVKHVKQYDRDHGKILDATPVKEKITDTIGSDGILTPRGGNMDISESPACTSSFQVFGGGNLDKTMDMSLETTINENNETARLFETTRDPTLLYEKIVETTTKVTERIVSMPLDDTLAMFNTTNQEDKDMSVDRSVLFTIPKVPKHNATMNRTIPMDLDESKAAGGQCDETMNVFNFTNLEAAEMDTSKLDENNTMNAIRIPINSNVMPVDMDITEHHTLIEEKKNDTFGPSQLMDISAPQVQVNDTLAIFNSPRDICNKGLGVPQNLINIASNVVPVDMDITDQAVLNAEKKNDQFETSQLMDISIPKVLVNDTMAMFNSPKHVSKSSMDLEKTIEAADKSTKYPSIADEVEDLDMDMDITEQQPCEAGNQQNDGLQLQKEDLMDISVIRDSPAVNDTMAVFQSPARVKIGANNSIIDSQKSIVFGDEMSIDETQNDGTLTLPKSNVEVTTTNDVYTSLER

Assays:
KNL-1^1–505–6xHis Δ9 = molecular target: B2; assay: pull-down
[1] = molecular target: T1, KNL-1^1–505–6xHis, wild type; assay: pull-down
SEC = molecular target: the molecule itself; assay: SEC

Row | Binder | binding result (KNL-1^1–505–6xHis Δ9) | binding result [1] | binding result (SEC)
1 | B1 | binds | binds | 
2 | B2 |  |  | binds
